From publication PMC2847215

B1: cassette CCGG, single symmetric m5C in HpaII site (dsDNA)
DNA 1: GCCTTCAGCGCCGGCGGATCCAGT
DNA 2: ACTGGATCCGCCGGCGCTGAAGGC
modifications: m5C12 in strand 1 and m5C12 in strand 2 (positions from site name)
B2: TCGA cassette (dsDNA)
DNA 1: CCCTCTGTCGAAGGAGGCTCCTGC
DNA 2: GCAGGAGCCTCCTTCGACAGAGGG
modifications: m5C9 strand 1, m5C15 strand 2 (M.SssI)
B3: CCGA cassette (dsDNA)
DNA 1: CCCTCTGCCGAAGGAGGCTCCTGC
DNA 2: GCAGGAGCCTCCTTCGGCAGAGGG
modifications: m5C9 strand 1, m5C15 strand 2 (M.SssI)
B4: CCGG cassette (oligos 17/18) (dsDNA)
DNA 1: CCCTCTGCCGGAGGAGGATCCTGC
DNA 2: GCAGGATCCTCCTCCGGCAGAGGG
modifications: m5C9 strand 1, m5C15 strand 2 (M.SssI)
B5: TCGG cassette (dsDNA)
DNA 1: CCCTCTGTCGGAGGAGGCTCCTGC
DNA 2: GCAGGAGCCTCCTCCGACAGAGGG
modifications: m5C9 strand 1, m5C15 strand 2 (M.SssI)
B6: C/G hemimethylated HpaII cassette (dsDNA)
DNA 1: GCCTTCAGCGCCGGCGGATCCAGT
DNA 2: ACTGGATCCGCCGGCGCTGAAGGC
modifications: m5C12 in strand 1 only
B7: C/A mismatch cassette (dsDNA)
DNA 1: GCCTTCAGCGCCGGCGGATCCAGT
DNA 2: ACTGGATCCGCCAGCGCTGAAGGC
modifications: m5C12 in strand 1 only
B8: unmethylated cassette (oligos 7/8) (dsDNA)
DNA 1: GCCTTCAGCGCCGGCGGATCCAGT
DNA 2: ACTGGATCCGCCGGCGCTGAAGGC
B9: CGC cassette (dsDNA)
DNA 1: CCCTCTGACGCAGGAGGCTCCTGC
DNA 2: GCAGGAGCCTCCTGCGTCAGAGGG
modifications: m5C9 strand 1, m5C15 strand 2 (M.SssI)
B10: CGT cassette (dsDNA)
DNA 1: CCCTCTGACGTAGGAGGCTCCTGC
DNA 2: GCAGGAGCCTCCTACGTCAGAGGG
modifications: m5C9 strand 1, m5C15 strand 2 (M.SssI)
B11: GCGG cassette (dsDNA)
DNA 1: CCCTCTGGCGGAGGAGGCTCCTGC
DNA 2: GCAGGAGCCTCCTCCGCCAGAGGG
modifications: m5C9 strand 1, m5C15 strand 2 (M.SssI)
B12: GCGA cassette (dsDNA)
DNA 1: CCCTCTGGCGAAGGAGGCTCCTGC
DNA 2: GCAGGAGCCTCCTTCGCCAGAGGG
modifications: m5C9 strand 1, m5C15 strand 2 (M.SssI)
B13: CGG and ACGG cassette (dsDNA)
DNA 1: CCCTCTGACGGAGGAGGCTCCTGC
DNA 2: GCAGGAGCCTCCTCCGTCAGAGGG
modifications: m5C9 strand 1, m5C15 strand 2 (M.SssI)
B14: CGA and ACGA cassette (dsDNA)
DNA 1: CCCTCTGACGAAGGAGGCTCCTGC
DNA 2: GCAGGAGCCTCCTTCGTCAGAGGG
modifications: m5C9 strand 1, m5C15 strand 2 (M.SssI)

The binders below were run against T1, rMcrA-S (UniProt P24200 1-277) (assay: EMSA).
T1 sequence: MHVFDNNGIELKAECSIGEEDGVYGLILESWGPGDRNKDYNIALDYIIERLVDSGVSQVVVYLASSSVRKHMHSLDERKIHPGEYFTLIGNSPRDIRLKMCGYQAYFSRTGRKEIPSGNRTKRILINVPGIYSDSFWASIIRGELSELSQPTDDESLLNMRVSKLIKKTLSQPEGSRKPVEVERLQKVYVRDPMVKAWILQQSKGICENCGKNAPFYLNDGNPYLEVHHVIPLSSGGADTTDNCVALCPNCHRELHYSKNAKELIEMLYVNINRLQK
B1: binds.

Molecular target: T1, rMcrA-S
Assay: EMSA
Remark: another data set of the same source
B2: binds. B3: binds. B4: binds. B5: binds.

Molecular target: T1, rMcrA-S
Assay: EMSA
Remark: another data set of the same source
B6: binds. B7: no binding. B8: no binding. B9: no binding. B10: no binding.

Molecular target: T1, rMcrA-S
Assay: EMSA
Remark: another data set of the same source
B11: binds. B12: binds. B13: binds. B14: binds.
